Measurements reported in publication PMC8171064.

Target: Saccharomyces cerevisiae Rsm22 protein, C-terminally His6-tagged (construct MA-S17–K628-HHHHHH) (S. cerevisiae) (UniProt P36056)
Assay: SEC-MALS; pooled and concentrated first SEC peak (higher oligomeric form); Superdex 200 10/300 GL; 40 mM Tris pH 7.5, 500 mM NaCl, 5% glycerol

- stoichiometry N: 2
Substance: Saccharomyces cerevisiae Rsm22 protein, C-terminally His6-tagged (construct MA-S17–K628-HHHHHH) (from UniProt P36056 17-628) (enzyme)
